# Experimental data: patent US20080102072A1
# Legend:
# [1] = molecular target: human IFNAR1, membrane receptor on cells (U266 human myeloma cells; Hela and A549 cells in the functional assays) (human) (UniProt P17181); assay: cell-based or functional assay
# [2] = molecular target: IFNAR1-IgG multiple alanine mutant 10, residues 383-388 (DEKLNK to AAALNA) (human); assay: capture ELISA, mutant IFNAR1-IgG captured by goat anti-hIgG-Fc, mAb 10 µg/ml; OD as % of wild type IFNAR1-IgG
# [3] = molecular target: IFNAR1-IgG multiple alanine mutant 7, residues 244-249 (HLYKWK to ALYAWA) (human); assay: as above
# [4] = molecular target: IFNAR1-IgG multiple alanine mutant 3, residues 76-80 (RAEKE to AAAAA) (human); assay: as above
# [5] = molecular target: IFNAR1-IgG multiple alanine mutant 6, residues 157-162 (RHKIYK to AAAIYA) (human); assay: as above
# IFNAR1-IgG multiple alanine mutant 6, residues 157-162 (RHKIYK to AAAIYA) (human), sequence (chain, as listed by the source mutant limits assumed): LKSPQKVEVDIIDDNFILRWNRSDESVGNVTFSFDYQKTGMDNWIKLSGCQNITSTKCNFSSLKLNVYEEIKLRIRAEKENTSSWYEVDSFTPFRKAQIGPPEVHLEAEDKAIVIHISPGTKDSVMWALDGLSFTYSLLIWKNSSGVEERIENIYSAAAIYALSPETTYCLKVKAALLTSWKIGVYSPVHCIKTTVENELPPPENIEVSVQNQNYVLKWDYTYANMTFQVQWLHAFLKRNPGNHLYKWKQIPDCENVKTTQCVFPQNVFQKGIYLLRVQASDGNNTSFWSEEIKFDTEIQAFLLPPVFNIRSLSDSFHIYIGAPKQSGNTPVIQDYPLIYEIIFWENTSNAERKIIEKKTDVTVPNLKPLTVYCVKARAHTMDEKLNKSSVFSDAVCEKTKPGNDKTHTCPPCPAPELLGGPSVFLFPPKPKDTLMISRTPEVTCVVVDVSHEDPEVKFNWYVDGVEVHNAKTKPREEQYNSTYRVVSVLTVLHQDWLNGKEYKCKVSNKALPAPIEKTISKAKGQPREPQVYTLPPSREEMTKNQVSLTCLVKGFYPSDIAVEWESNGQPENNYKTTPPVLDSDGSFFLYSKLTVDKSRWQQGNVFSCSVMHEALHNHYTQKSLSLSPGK
# [6] = molecular target: IFNAR1-IgG multiple alanine mutant 4, residues 103-111 (… to …) (human); assay: as above
# [7] = molecular target: IFNAR1-IgG multiple alanine mutant 5, residues 148-152 (EERIE to AAAIA) (human); assay: as above
# [8] = molecular target: IFNAR1-IgG multiple alanine mutant 9, residues 352-359 (ERKIIEKK to AAAIIAAA) (human); assay: as above
# [9] = molecular target: IFNAR1-IgG multiple alanine mutant 1, residues 19-25 (RWNRSDE to AWNASAA) (human); assay: as above
# [10] = molecular target: IFNAR1-IgG multiple alanine mutant 2, residues 69-74 (EEIKLR to AAIALA) (human); assay: as above
# [11] = molecular target: IFNAR1-IgG multiple alanine mutant 8, residues 291-298 (EEIKFDTE to AAIAFATA) (human); assay: as above
# [12] = molecular target: hIFNAR1 ECD-IgG fusion protein (immunoadhesin, pRK5 hIFNAR1-IgG clone 53.65), wild type (human); assay: competitive radioimmunoprecipitation with 125I-hIFNAR1-IgG and unlabeled hIFNAR1-IgG, Scatchard analysis
# [13] = molecular target: human IFNAR1, membrane receptor on cells (U266 human myeloma cells; Hela and A549 cells in the functional assays) (human) (UniProt P17181); assay: flow cytometry on U266 cells, F-mAb preincubated with competitor: 10 µg soluble hIFNAR1-IgG Mutant #7 (244-249)
# [14] = molecular target: human IFNAR1, membrane receptor on cells (U266 human myeloma cells; Hela and A549 cells in the functional assays) (human) (UniProt P17181); assay: flow cytometry on U266 cells, F-mAb preincubated with competitor: 10 µg soluble hIFNAR1-IgG Mutant #8 (291-298)
# [15] = molecular target: human IFNAR1, membrane receptor on cells (U266 human myeloma cells; Hela and A549 cells in the functional assays) (human) (UniProt P17181); assay: flow cytometry on U266 cells, F-mAb preincubated with competitor: 10 µg soluble wild type hIFNAR1-IgG
# [16] = molecular target: IFNAR1-IgG single alanine mutant E291A (human); assay: capture ELISA, single alanine mutant IFNAR1-IgG captured by goat anti-hIgG-Fc; OD as % of wild type IFNAR1-IgG
# IFNAR1-IgG single alanine mutant E291A (human), sequence (chain, as listed by the source E291A E291A limits assumed): as the sequence (chain, as listed by the source mutant limits assumed) above, with A157R, A158H, A159K, A162K, E291A counted along it
# [17] = molecular target: IFNAR1-IgG single alanine mutant D296A (human); assay: as above
# [18] = molecular target: IFNAR1-IgG single alanine mutant E298A (human); assay: as above
# [19] = molecular target: IFNAR1-IgG single alanine mutant E69A (human); assay: as above
# IFNAR1-IgG single alanine mutant E69A (human), sequence (chain, as listed by the source E69A E69A limits assumed): as the sequence (chain, as listed by the source mutant limits assumed) above, with E69A, A157R, A158H, A159K, A162K counted along it
# [20] = molecular target: IFNAR1-IgG single alanine mutant K249A (human); assay: as above
# IFNAR1-IgG single alanine mutant K249A (human), sequence (chain, as listed by the source K249A K249A limits assumed): as the sequence (chain, as listed by the source mutant limits assumed) above, with A157R, A158H, A159K, A162K, K249A counted along it
# [21] = molecular target: IFNAR1-IgG single alanine mutant H244A (human); assay: as above
# [22] = molecular target: IFNAR1-IgG single alanine mutant K72A (human); assay: as above
# [23] = molecular target: IFNAR1-IgG single alanine mutant E70A (human); assay: as above
# IFNAR1-IgG single alanine mutant E70A (human), sequence (chain, as listed by the source E70A E70A limits assumed): as the sequence (chain, as listed by the source mutant limits assumed) above, with E70A, A157R, A158H, A159K, A162K counted along it
# [24] = molecular target: IFNAR1-IgG single alanine mutant E292A (human); assay: as above
# IFNAR1-IgG single alanine mutant E292A (human), sequence (chain, as listed by the source E292A E292A limits assumed): as the sequence (chain, as listed by the source mutant limits assumed) above, with A157R, A158H, A159K, A162K, E292A counted along it
# [25] = molecular target: IFNAR1-IgG single alanine mutant K294A (human); assay: as above
# IFNAR1-IgG single alanine mutant K294A (human), sequence (chain, as listed by the source K294A K294A limits assumed): as the sequence (chain, as listed by the source mutant limits assumed) above, with A157R, A158H, A159K, A162K, K294A counted along it
# [26] = molecular target: IFNAR1-IgG single alanine mutant K247A (human); assay: as above
# [27] = molecular target: IFNAR1-IgG single alanine mutant R74A (human); assay: as above
# IFNAR1-IgG single alanine mutant R74A (human), sequence (chain, as listed by the source R74A R74A limits assumed): as the sequence (chain, as listed by the source mutant limits assumed) above, with R74A, A157R, A158H, A159K, A162K counted along it
# [28] = molecular target: human IFNAR1, membrane receptor on cells (U266 human myeloma cells; Hela and A549 cells in the functional assays) (human) (UniProt P17181); assay: flow cytometry on U266 cells, fluoresceinated mAb 1 µg/100 µl, no soluble hIFNAR1
Substance,EC50 of mAb neutralizing the anti-viral cytopathic effect of 10 units/ml IFNα1 on A549 cells (EMC virus) [1],EC50 of mAb neutralizing the anti-viral cytopathic effect of 10 units/ml IFNα2/1 on A549 cells (EMC virus) [1],EC50 of mAb neutralizing the anti-viral cytopathic effect of 10 units/ml IFNα2 on A549 cells (EMC virus) [1],EC50 of mAb neutralizing the anti-viral cytopathic effect of 10 units/ml IFNα5 on A549 cells (EMC virus) [1],EC50 of mAb neutralizing the anti-viral cytopathic effect of 10 units/ml IFNα8 on A549 cells (EMC virus) [1],EC50 of mAb neutralizing the anti-viral cytopathic effect of 10 units/ml IFNβ on A549 cells (EMC virus) [1],% Wild type binding of mAbs [2],% Wild type binding of mAbs [3],% Wild type binding of mAbs [4],% Wild type binding of mAbs [5],% Wild type binding of mAbs [6],% Wild type binding of mAbs [7],% Wild type binding of mAbs [8],% Wild type binding of mAbs [9],% Wild type binding of mAbs [10],% Wild type binding of mAbs [11],Kd [12],% Wild type binding of mAbs [16],% Wild type binding of mAbs [17],% Wild type binding of mAbs [18],also measured
anti-hIFNAR1 monoclonal antibody 2E1 (hybridoma ATCC HB 12133),3 µg/mL,3 µg/mL,1 µg/mL,1 µg/mL,1 µg/mL,> 30 µg/mL,105%,0%,97%,84%,66%,87%,105%,101%,21%,6%,0.066 nM,7%,5%,36%,Mean Fluorescence Intensity [13]: 7.82; Mean Fluorescence Intensity [14]: 7.65; Mean Fluorescence Intensity [15]: 2.83; % Wild type binding of mAbs [19]: 72%; % Wild type binding of mAbs [20]: 5%; % Wild type binding of mAbs [21]: 92%; % Wild type binding of mAbs [22]: 90%; % Wild type binding of mAbs [23]: 81%; % Wild type binding of mAbs [24]: 34%; % Wild type binding of mAbs [25]: 54%; % Wild type binding of mAbs [26]: 74%; % Wild type binding of mAbs [27]: 57%; Mean Fluorescence Intensity [28]: 7.6
anti-hIFNAR1 monoclonal antibody 2H6 (hybridoma ATCC HB 12131),> 30 µg/mL,> 30 µg/mL,> 30 µg/mL,> 30 µg/mL,> 30 µg/mL,> 30 µg/mL,93%,105%,48%,90%,39%,68%,101%,77%,0%,64%,3.12 nM,49%,49%,53%,% Wild type binding of mAbs [19]: 64%; % Wild type binding of mAbs [20]: 69%; % Wild type binding of mAbs [21]: 94%; % Wild type binding of mAbs [22]: 89%; % Wild type binding of mAbs [23]: 79%; % Wild type binding of mAbs [24]: 55%; % Wild type binding of mAbs [25]: 65%; % Wild type binding of mAbs [26]: 88%; % Wild type binding of mAbs [27]: 0%
anti-hIFNAR1 monoclonal antibody 5A8 (hybridoma ATCC HB 12129),> 30 µg/mL,> 30 µg/mL,> 30 µg/mL,> 30 µg/mL,> 30 µg/mL,> 30 µg/mL,83%,110%,109%,100%,34%,80%,81%,110%,67%,75%,0.174 nM,61%,70%,72%,% Wild type binding of mAbs [19]: 91%; % Wild type binding of mAbs [20]: 71%; % Wild type binding of mAbs [21]: 99%; % Wild type binding of mAbs [22]: 110%; % Wild type binding of mAbs [23]: 83%; % Wild type binding of mAbs [24]: 66%; % Wild type binding of mAbs [25]: 82%; % Wild type binding of mAbs [26]: 93%; % Wild type binding of mAbs [27]: 84%
